Experiments:
Assay type in all cases: biochemical
His-LSD2 = biological target: T1, His-LSD2 (Homo sapiens, UniProt Q8NB78); test: Nucleosome demethylation assay (NPAC cofactor activity for LSD2, immunoblot)
T1 construct: typically 0.5 μg full-length His-LSD2; made in house; host or cells: Sf9 insect cells
T1 sequence (Q8NB78 1-822): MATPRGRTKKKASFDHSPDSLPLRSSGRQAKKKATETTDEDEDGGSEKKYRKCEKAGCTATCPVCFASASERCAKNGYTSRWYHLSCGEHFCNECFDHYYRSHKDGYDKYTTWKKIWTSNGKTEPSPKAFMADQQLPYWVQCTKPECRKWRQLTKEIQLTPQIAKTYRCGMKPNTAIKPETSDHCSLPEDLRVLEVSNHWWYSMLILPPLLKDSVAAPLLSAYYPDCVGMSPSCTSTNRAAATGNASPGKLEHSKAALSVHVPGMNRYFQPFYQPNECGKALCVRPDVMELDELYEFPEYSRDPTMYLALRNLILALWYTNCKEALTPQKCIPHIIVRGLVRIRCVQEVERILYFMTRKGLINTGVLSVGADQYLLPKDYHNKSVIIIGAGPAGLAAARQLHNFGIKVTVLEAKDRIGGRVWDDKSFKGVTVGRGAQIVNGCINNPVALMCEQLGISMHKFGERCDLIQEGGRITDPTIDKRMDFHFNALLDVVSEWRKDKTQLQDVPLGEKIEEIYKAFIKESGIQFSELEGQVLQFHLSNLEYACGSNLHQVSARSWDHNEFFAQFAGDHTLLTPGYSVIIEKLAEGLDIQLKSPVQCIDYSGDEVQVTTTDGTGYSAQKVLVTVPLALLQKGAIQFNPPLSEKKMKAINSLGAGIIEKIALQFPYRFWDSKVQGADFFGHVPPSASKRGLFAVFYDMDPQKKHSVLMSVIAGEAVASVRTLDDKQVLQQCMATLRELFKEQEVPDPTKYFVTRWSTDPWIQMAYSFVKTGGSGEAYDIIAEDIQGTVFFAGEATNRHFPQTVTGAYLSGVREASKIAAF
Protocol: For nucleosome demethylation assays, typically 0.5 μg full-length His-LSD2, 1 μg NPAC protein or peptides, and 2 μg nucleosomes purified from HeLa were used, and demethylation efficiency was analyzed by SDS-PAGE electrophoresis and immunoblot using methylation specific anti-histone H3 antibodies as previously described (Shi et al. 2004).

LSD2 [1] = biological target: T2, LSD2 (Homo sapiens, UniProt Q8NB78); test: H3K4me2 peptide demethylation assay (MALDI-TOF); set-up: 0.15 μM or 1.2 μM purified LSD2 (residues 51-822); His6 (cleaved yes); made in house; host or cells: Sf9 insect cells (baculovirus); details: longer H3K4me2 peptide residues 1-44
T2 sequence (Q8NB78 1-822): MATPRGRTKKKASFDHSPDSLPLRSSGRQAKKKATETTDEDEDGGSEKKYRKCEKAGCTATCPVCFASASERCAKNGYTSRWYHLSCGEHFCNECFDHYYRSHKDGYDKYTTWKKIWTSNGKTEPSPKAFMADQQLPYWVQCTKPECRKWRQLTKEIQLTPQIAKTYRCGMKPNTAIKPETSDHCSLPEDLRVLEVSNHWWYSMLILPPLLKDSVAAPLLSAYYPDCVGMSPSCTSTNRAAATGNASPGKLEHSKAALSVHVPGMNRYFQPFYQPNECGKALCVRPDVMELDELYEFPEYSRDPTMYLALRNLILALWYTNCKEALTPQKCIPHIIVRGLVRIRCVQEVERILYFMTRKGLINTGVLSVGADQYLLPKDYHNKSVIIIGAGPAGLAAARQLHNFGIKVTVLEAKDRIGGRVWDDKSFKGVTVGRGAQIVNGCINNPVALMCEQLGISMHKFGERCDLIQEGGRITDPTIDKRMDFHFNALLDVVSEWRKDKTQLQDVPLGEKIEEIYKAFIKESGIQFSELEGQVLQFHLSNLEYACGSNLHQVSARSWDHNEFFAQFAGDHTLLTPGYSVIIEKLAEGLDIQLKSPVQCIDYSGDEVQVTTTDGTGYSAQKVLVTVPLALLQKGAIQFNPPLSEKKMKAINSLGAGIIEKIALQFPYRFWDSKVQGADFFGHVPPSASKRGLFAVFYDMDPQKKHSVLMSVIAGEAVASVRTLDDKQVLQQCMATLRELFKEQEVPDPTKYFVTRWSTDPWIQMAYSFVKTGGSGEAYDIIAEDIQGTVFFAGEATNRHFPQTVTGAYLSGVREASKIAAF
Protocol: FIGS. 12A-12F depict analysis of LSD2 demethylation activity and mutational analysis. […] Demethylation products were analyzed by MALDI-TOF mass spectrometry. 0.15 μM LSD2 can efficiently demethylate the longer H3K4me2 peptide (1-21), but has no detectable activity on the shorter histone peptide (1-15), demethylation of which requires high concentration (1.2 μM) of LSD2. […] It indicates the importance of histone residue 16-21 to LSD2 enzymatic activity and NPAC cofactor activity, supporting our model that NPAC assists enzyme-substrate interactions by creating a new binding site for H3 L20 in the LSD2-NPAC complex. FIG. 12C depicts LSD2 demethylation and NPAC cofactor activity on longer H3K4me2 peptide (1-44). […] The cofactor activity of wild-type NPAC was readily detected under the same conditions. […] It is noted that no obvious cofactor effect of F217A peptide or linker regions was detected in nucleosome and peptide demethylation assays (FIG. 6E and data not shown). […]
Histone peptides are purchased from Millipore, or custom synthesized. The purity of all peptides are >95% as determined by HPLC and mass spectrometry. […] The products were desalted through a C18 Ziptip (Millipore) and analyzed on a MALDI-TOF micro MX mass spectrometer (ABI 4700, Applied Biosystems). […]

LSD2 [2] = biological target: T3, LSD2 (Homo sapiens, UniProt Q8NB78); test: H3K4me2 peptide demethylation assay (MALDI-TOF); details: H3K4me2 peptide residues 1-21
T3 construct: 0.15 μM or 1.2 μM purified LSD2 (residues 51-822); His6 (cleaved yes); made in house; host or cells: Sf9 insect cells (baculovirus)
T3 sequence (Q8NB78 51-822): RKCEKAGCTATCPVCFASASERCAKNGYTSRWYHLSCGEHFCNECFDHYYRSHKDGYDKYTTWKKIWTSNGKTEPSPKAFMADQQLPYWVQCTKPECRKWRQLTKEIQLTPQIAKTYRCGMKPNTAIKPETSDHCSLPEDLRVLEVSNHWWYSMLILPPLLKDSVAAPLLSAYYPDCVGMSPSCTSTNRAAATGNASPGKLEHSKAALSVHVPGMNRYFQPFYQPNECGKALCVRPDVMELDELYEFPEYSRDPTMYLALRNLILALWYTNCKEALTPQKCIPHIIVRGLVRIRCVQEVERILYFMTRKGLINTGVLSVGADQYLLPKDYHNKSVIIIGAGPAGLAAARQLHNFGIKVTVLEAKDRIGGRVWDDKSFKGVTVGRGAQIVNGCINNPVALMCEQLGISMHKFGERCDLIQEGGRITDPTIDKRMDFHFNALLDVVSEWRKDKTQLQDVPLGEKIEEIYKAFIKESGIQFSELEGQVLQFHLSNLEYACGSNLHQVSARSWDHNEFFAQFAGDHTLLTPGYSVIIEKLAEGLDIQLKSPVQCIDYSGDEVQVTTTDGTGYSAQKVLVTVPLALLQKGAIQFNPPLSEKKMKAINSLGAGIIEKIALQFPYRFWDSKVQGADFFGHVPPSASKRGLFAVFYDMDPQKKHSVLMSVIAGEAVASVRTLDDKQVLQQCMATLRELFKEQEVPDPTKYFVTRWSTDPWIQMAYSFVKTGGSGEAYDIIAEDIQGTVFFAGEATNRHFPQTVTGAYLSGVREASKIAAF
Protocol: FIGS. 12A-12F depict analysis of LSD2 demethylation activity and mutational analysis. […] Demethylation products were analyzed by MALDI-TOF mass spectrometry. 0.15 μM LSD2 can efficiently demethylate the longer H3K4me2 peptide (1-21), but has no detectable activity on the shorter histone peptide (1-15), demethylation of which requires high concentration (1.2 μM) of LSD2. […] It indicates the importance of histone residue 16-21 to LSD2 enzymatic activity and NPAC cofactor activity, supporting our model that NPAC assists enzyme-substrate interactions by creating a new binding site for H3 L20 in the LSD2-NPAC complex. FIG. 12C depicts LSD2 demethylation and NPAC cofactor activity on longer H3K4me2 peptide (1-44). 2 μg H3K4me2 peptide (1-44) were incubated with 0.8 μg GST-LSD2 (1-822) and 2 μg wild-type or F217A full-length GST-NPAC proteins in 100 μl demethylation buffer (50 mM Tris-HCl pH 8.1, 1 mM NAD^+, 0.1 Unit formaldehyde dehydrogenase) at 30° C. for 2 hours. LSD2 alone can efficiently demethylate di-methyl H3K4 of the long peptides, converting large majority of the substrate to H3K4me1. Wild-type NPAC protein can efficiently stimulate LSD2 demethylation, producing unmethylated H3K4. F217A mutation impairs NPAC cofactor activity as expected, showing little stimulatory effect if any. To compare demethylation efficiency, 1.2 μg bio-H3K4me2 peptide (H3 residue 1-21, equal molar ratio to 2 ug H3K4me2 1-44 peptide in above assays) was demethylated by LSD2 under identical conditions (bottom panel). […] The cofactor activity of wild-type NPAC was readily detected under the same conditions. […] Importantly, the demethylation of nucleosomal H3K4me2 was much more efficient in the presence of wild-type NPAC under same conditions (comparing lane 3 verse 4, and 8 verse 9). It is noted that no obvious cofactor effect of F217A peptide or linker regions was detected in nucleosome and peptide demethylation assays (FIG. 6E and data not shown). FIG. 12F depicts Coomassie staining of NPAC proteins used in histone demethylase assays. FIG. 12F discloses “His6” as SEQ ID NO: 75.
Histone peptides are purchased from Millipore, or custom synthesized. The purity of all peptides are >95% as determined by HPLC and mass spectrometry. In vitro histone demethylase activity assays were performed as described (Shi et al., 2004). Briefly, purified LSD2 and NPAC derived peptides or proteins were incubated with 50 μM H3K4me2 peptides (residues 1-21) in 50 mM Tris-HCl, pH 8.5, 50 mM KCl, 5 mM MgCl2, 5% glycerol at 37° C. for 30 min. The products were desalted through a C18 Ziptip (Millipore) and analyzed on a MALDI-TOF micro MX mass spectrometer (ABI 4700, Applied Biosystems). The laser intensity was kept constant for all of the samples. All MS data were processed using Data Explorer 4.5 (Applied Biosystems). […]

LSD1 = LSD1 (Homo sapiens, UniProt O60341); test: LSD1-mediated nucleosome demethylation assay; details: 2 μg LSD1 with 5 μg cofactor protein
Protocol: FIG. 7A depicts the determination of the threshold dosage of purified LSD2 required for nucleosomal H3K4 demethylation. 2 μg of nucleosomes purified from HeLa were incubated with various amount of His-LSD2 proteins for 2 hours at 30° C. The demethylation reactions were analyzed by immunoblotting using indicated antibodies. […] 2 μg LSD1 in combination with 5 μg purified NPAC or CoREST protein was used for histone demethylase assays. […] Transfected cells are marked by arrows; cells shown significant reduction of H3K4me1 are marked by dotted circles. […] In contrast, coexpression of LSD2 and NPAC induces obvious global decrease of H3K4me1. […] FIG. 7D depicts immunofluorescence analyses of H3K9me2 demethylation in cells coexpressing LSD2 and full-length NPAC.

| Molecule | Cofactor activity on nucleosomes when more NPAC and LSD2 proteins were used (His-LSD2; more NPAC and LSD2 than threshold assay (FIG. 12E)) | Cofactor activity: stimulation of LSD2 demethylation of nucleosomal H3K4me2 (His-LSD2; threshold dosage of His-LSD2, nucleosomes purified from HeLa) | Cofactor activity: stimulation of LSD2 demethylation of H3K4me2 peptide (LSD2 [1]) | Cofactor activity: stimulation of LSD2 demethylation of H3K4me2 peptide (LSD2 [2]) | Stimulation of LSD1 nucleosome demethylation (LSD1) |
| --- | --- | --- | --- | --- | --- |
| full-length NPAC F217A protein: full-length NPAC protein with F217A mutation (protein, UniProt Q49A26 1-553, looked up, variant F217A, full-length, full-length NPAC protein with F217A mutation) MAAVSLRLGDLVWGKLGRYPPWPGKIVNPPKDLKKPRGKKCFFVKFFGTEDHAWIKVEQLKPYHAHKEEMIKINKGKRFQQAVDAVEEFLRRAKGKDQTSSHNSSDDKNRRNSSEERSRPNSGDEKRKLSLSEGKVKKNMGEGKKRVSSGSSERGSKSPLKRAQEQSPRKRGRPPKDEKDLTIPESSTVKGMMAGPMAAFKWQPTASEPVKDADPHAHHFLLSQTEKPAVCYQAITKKLKICEEETGSTSIQAADSTAVNGSITPTDKKIGFLGLGLMGSGIVSNLLKMGHTVTVWNRTAEKCDLFIQEGARLGRTPAEVVSTCDITFACVSDPKAAKDLVLGPSGVLQGIRPGKCYVDMSTVDADTVTELAQVIVSRGGRFLEAPVSGNQQLSNDGMLVILAAGDRGLYEDCSSCFQAMGKTSFFLGEVGNAAKMMLIVNMVQGSFMATIAEGLTLAQVTGQSQQTLLDILNQGQLASIFLDQKCQNILQGNFKPDFYLKYIQKDLRLAIALGDAVNHPTPMAAAANEVYKRAKALDQSDNDMSAVYRAYIH | residual stimulatory activity | didn't detect cofactor activity | very weak or undetectable |  |  |
| linker region of NPAC: NPAC linker region, residues 152-252 or 152-268 (protein, left off: a dimerising Fc or GST) SERGSKSPLKRAQEQSPRKRGRPPKDEKDLTIPESSTVKGMMAGPMAAFKWQPTASEPVKDADPHFHHFLLSQTEKPAVCYQAITKKLKICEEETGSTSIQ |  |  |  | strong cofactor activity for LSD2 | failed to stimulate LSD1 demethylation of nucleosomes |
